PMC12146848, “Deciphering meiotic chromatin organization by SYCP3”

Legend:
SYCP3 [1] = target: T1, SYCP3 (Mus musculus, UniProt P70281); test: competition; 50-fold excess against labeled WT Probe; higher affinity than WT; Beyotime GS008 Gel-Shift binding buffer (composition and pH not given), 15 ul, 1 h at room temperature, 4% polyacrylamide gel; conditions: protein: recombinant; tags: C-terminal 6xHis; chain copies: 4; label: unlabeled; blunt
T1 sequence: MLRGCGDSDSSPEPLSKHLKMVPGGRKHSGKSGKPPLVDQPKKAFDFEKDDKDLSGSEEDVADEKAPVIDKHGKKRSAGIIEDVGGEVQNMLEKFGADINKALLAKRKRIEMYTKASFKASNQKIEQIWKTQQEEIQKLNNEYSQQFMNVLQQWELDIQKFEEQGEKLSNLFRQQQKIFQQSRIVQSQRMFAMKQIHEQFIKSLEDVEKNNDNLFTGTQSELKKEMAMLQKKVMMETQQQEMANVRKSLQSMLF

SYCP3 [2] = target: T1, SYCP3; test: EMSA; stronger than WT Probe; Beyotime GS008 Gel-Shift binding buffer (composition and pH not given), 15 ul, 1 h at room temperature, 4% polyacrylamide gel; conditions: protein: recombinant; tags: C-terminal 6xHis; chain copies: 4; label: 3' biotin-dUTP added by TdT on both strands; blunt before 3' TdT labeling
SYCP3 [3] = target: T1, SYCP3; test: EMSA; 0.2 uM probe, 1 ug SYCP3 in 15 ul; Beyotime GS008 Gel-Shift binding buffer (composition and pH not given), 15 ul, 1 h at room temperature, 4% polyacrylamide gel; conditions: protein: recombinant; tags: C-terminal 6xHis; chain copies: 4; label: 3' biotin-dUTP added by TdT on both strands; blunt before 3' TdT labeling
SYCP3 [4] = target: T1, SYCP3; test: competition; 50-fold excess against labeled WT Probe; efficient competition; Beyotime GS008 Gel-Shift binding buffer (composition and pH not given), 15 ul, 1 h at room temperature, 4% polyacrylamide gel; conditions: protein: recombinant; tags: C-terminal 6xHis; chain copies: 4; label: unlabeled; blunt

B1: Mut competitor (dsDNA)
DNA 1: GTGACTTCAACAGCCAGGTCTTAATTTCAAATGCATTGAATAGATGTCTTGTCTCCCAGA
DNA 2: TCTGGGAGACAAGACATCTATTCAATGCATTTGAAATTAAGACCTGGCTGTTGAAGTCAC
Question: Does B1 bind (SYCP3 [1])?
Answer: binds

B2: Mut probe (dsDNA)
DNA 1: B1 DNA 1
DNA 2: B1 DNA 2
Question: Does B2 bind (SYCP3 [2])?
Answer: binds

B3: WT Probe (dsDNA)
DNA 1: ACAGTCCTGGTGATTGAACTCCGGCCCTGGGCATGCCAGGCGAGCACTCCACTCTTTGAG
DNA 2: CTCAAAGAGTGGAGTGCTCGCCTGGCATGCCCAGGGCCGGAGTTCAATCACCAGGACTGT
Question: Does B3 bind (SYCP3 [3])?
Answer: binds

B4: WT competitor (dsDNA)
DNA 1: B3 DNA 1
DNA 2: B3 DNA 2
Question: Does B4 bind (SYCP3 [4])?
Answer: binds
